Results on 39 variants are retold here after the Human Domainome abundance scans (Beltran et al. 2025).

± gives the uncertainty stated by the source.

The labels stand for the following.
B1: TOX high mobility group box family member 3, residues 256 to 323; numbered along this chain, O15405 (parent)
chain: QKPVSAYALFFRDTQAAIKGQNPNATFGEVSKIVASMWDSLGEEQKQVYKRKTEAAKKEYLKALAAYR

In this data set the parent is B1. In words: abundance fitness (aPCA) (normalised: wild type 0, dead -1); higher = more abundant; growth selection in yeast, the domain comes from the species named. Conditions: Homo sapiens.
As for QKPVSAYALFFRDTQAAIKGQKPNATFGEVSKIVASMWDSLGEEQKQVYKRKTEAAKKEYLKALAAYR [N22K], the abundance fitness is -0.382 ± 0.13. The figure for QKPVSAYALFFRDTQAAIKGQMPNATFGEVSKIVASMWDSLGEEQKQVYKRKTEAAKKEYLKALAAYR [N22M] is -0.437 ± 0.12.

In the case of QKPVSAYALFFRDTQAAIKGQAPNATFGEVSKIVASMWDSLGEEQKQVYKRKTEAAKKEYLKALAAYR [N22A], the abundance fitness was -0.476 ± 0.095. Under QKPVSAYALFFRDTQAAIKGQVPNATFGEVSKIVASMWDSLGEEQKQVYKRKTEAAKKEYLKALAAYR [N22V] stands -0.149 ± 0.083. Under QKPVSAYALFFRDTQAAIKGQFPNATFGEVSKIVASMWDSLGEEQKQVYKRKTEAAKKEYLKALAAYR [N22F] stands -0.298 ± 0.12; under QKPVSAYALFFRDTQAAIKGQYPNATFGEVSKIVASMWDSLGEEQKQVYKRKTEAAKKEYLKALAAYR [N22Y], -0.121 ± 0.11. QKPVSAYALFFRDTQAAIKGQIPNATFGEVSKIVASMWDSLGEEQKQVYKRKTEAAKKEYLKALAAYR [N22I]: the abundance fitness is -0.515 ± 0.13. The figure for QKPVSAYALFFRDTQAAIKGQQPNATFGEVSKIVASMWDSLGEEQKQVYKRKTEAAKKEYLKALAAYR [N22Q] is -0.182 ± 0.073; for QKPVSAYALFFRDTQAAIKGQRPNATFGEVSKIVASMWDSLGEEQKQVYKRKTEAAKKEYLKALAAYR [N22R] it is -0.044 ± 0.057. Consider QKPVSAYALFFRDTQAAIKGQPPNATFGEVSKIVASMWDSLGEEQKQVYKRKTEAAKKEYLKALAAYR [N22P], for which the abundance fitness is -0.824 ± 0.28. For the variant QKPVSAYALFFRDTQAAIKGQSPNATFGEVSKIVASMWDSLGEEQKQVYKRKTEAAKKEYLKALAAYR [N22S], the abundance fitness was -0.451 ± 0.071. Regarding QKPVSAYALFFRDTQAAIKGQTPNATFGEVSKIVASMWDSLGEEQKQVYKRKTEAAKKEYLKALAAYR [N22T], the abundance fitness is -0.293 ± 0.084. The figure for QKPVSAYALFFRDTQAAIKGQHPNATFGEVSKIVASMWDSLGEEQKQVYKRKTEAAKKEYLKALAAYR [N22H] is 0.037 ± 0.085; for QKPVSAYALFFRDTQAAIKGQDPNATFGEVSKIVASMWDSLGEEQKQVYKRKTEAAKKEYLKALAAYR [N22D] it is -0.41 ± 0.31. Under QKPVSAYALFFRDTQAAIKGQEPNATFGEVSKIVASMWDSLGEEQKQVYKRKTEAAKKEYLKALAAYR [N22E] stands -0.443 ± 0.14; under QKPVSAYALFFRDTQAAIKGQNPNLTFGEVSKIVASMWDSLGEEQKQVYKRKTEAAKKEYLKALAAYR [A25L], -0.155 ± 0.07; under QKPVSAYALFFRDTQAAIKGQNPNMTFGEVSKIVASMWDSLGEEQKQVYKRKTEAAKKEYLKALAAYR [A25M], -0.212 ± 0.086. Under QKPVSAYALFFRDTQAAIKGQNPNNTFGEVSKIVASMWDSLGEEQKQVYKRKTEAAKKEYLKALAAYR [A25N] stands -0.677 ± 0.089; under QKPVSAYALFFRDTQAAIKGQNPNHTFGEVSKIVASMWDSLGEEQKQVYKRKTEAAKKEYLKALAAYR [A25H], -0.299 ± 0.084. Regarding QKPVSAYALFFRDTQAAIKGQNPNCTFGEVSKIVASMWDSLGEEQKQVYKRKTEAAKKEYLKALAAYR [A25C], the abundance fitness is -0.369 ± 0.079. As to QKPVSAYALFFRDTQAAIKGQNPNGTFGEVSKIVASMWDSLGEEQKQVYKRKTEAAKKEYLKALAAYR [A25G], the abundance fitness is -0.696 ± 0.1. Under QKPVSAYALFFRDTQAAIKGQNPNITFGEVSKIVASMWDSLGEEQKQVYKRKTEAAKKEYLKALAAYR [A25I] stands -0.121 ± 0.066. The figure for QKPVSAYALFFRDTQAAIKGRNPNATFGEVSKIVASMWDSLGEEQKQVYKRKTEAAKKEYLKALAAYR [Q21R] is 0.042 ± 0.058. The figure for QKPVSAYALFFRDTQAAIKGYNPNATFGEVSKIVASMWDSLGEEQKQVYKRKTEAAKKEYLKALAAYR [Q21Y] is -0.338 ± 0.1; for QKPVSAYALFFRDTQAAIKGINPNATFGEVSKIVASMWDSLGEEQKQVYKRKTEAAKKEYLKALAAYR [Q21I] it is -0.346 ± 0.084.

QKPVSAYALFFRDTQAAIKGPNPNATFGEVSKIVASMWDSLGEEQKQVYKRKTEAAKKEYLKALAAYR [Q21P]: the abundance fitness was -0.722 ± 0.14.

Take QKPVSAYALFFRDTQAAIKGKNPNATFGEVSKIVASMWDSLGEEQKQVYKRKTEAAKKEYLKALAAYR [Q21K]: the abundance fitness is 0.029 ± 0.1.

For QKPVSAYALFFRDTQAAIKGCNPNATFGEVSKIVASMWDSLGEEQKQVYKRKTEAAKKEYLKALAAYR [Q21C], the abundance fitness was -0.256 ± 0.13. The figure for QKPVSAYALFFRDTQAAIKGHNPNATFGEVSKIVASMWDSLGEEQKQVYKRKTEAAKKEYLKALAAYR [Q21H] is -0.175 ± 0.082; for QKPVSAYALFFRDTQAAIKGANPNATFGEVSKIVASMWDSLGEEQKQVYKRKTEAAKKEYLKALAAYR [Q21A] it is -0.051 ± 0.058; for QKPVSAYALFFRDTQAAIKGNNPNATFGEVSKIVASMWDSLGEEQKQVYKRKTEAAKKEYLKALAAYR [Q21N] it is 0.048 ± 0.077. Take QKPVSAYALFFRDTQAAIKGMNPNATFGEVSKIVASMWDSLGEEQKQVYKRKTEAAKKEYLKALAAYR [Q21M]: the abundance fitness was -0.199 ± 0.17. QKPVSAYALFFRDTQAAIKGWNPNATFGEVSKIVASMWDSLGEEQKQVYKRKTEAAKKEYLKALAAYR [Q21W]: the abundance fitness was -0.388 ± 0.089. QKPVSAYALFFRDTQAAIKGTNPNATFGEVSKIVASMWDSLGEEQKQVYKRKTEAAKKEYLKALAAYR [Q21T]: the abundance fitness was -0.011 ± 0.084.

Regarding QKPVSAYALFFRDTQAAIKGGNPNATFGEVSKIVASMWDSLGEEQKQVYKRKTEAAKKEYLKALAAYR [Q21G], the abundance fitness is -0.289 ± 0.057. QKPVSAYALFFRDTQAAIKGVNPNATFGEVSKIVASMWDSLGEEQKQVYKRKTEAAKKEYLKALAAYR [Q21V]: the abundance fitness was -0.321 ± 0.069.

Turning to QKPVSAYALFFRDTQAAIKGLNPNATFGEVSKIVASMWDSLGEEQKQVYKRKTEAAKKEYLKALAAYR [Q21L], the abundance fitness is -0.219 ± 0.056. The figure for QKPVSAYALFFRDTQAAIKGFNPNATFGEVSKIVASMWDSLGEEQKQVYKRKTEAAKKEYLKALAAYR [Q21F] is -0.444 ± 0.11. Under QKPVSAYALFFRDTQAAIKGSNPNATFGEVSKIVASMWDSLGEEQKQVYKRKTEAAKKEYLKALAAYR [Q21S] stands -0.029 ± 0.038.
